The text below walks through data of US20220324978A1.

Residue numbers refer to the chain shown, from its start.

T1: Histidine-tagged canine PD-1 protein (canine)
T1 sequence: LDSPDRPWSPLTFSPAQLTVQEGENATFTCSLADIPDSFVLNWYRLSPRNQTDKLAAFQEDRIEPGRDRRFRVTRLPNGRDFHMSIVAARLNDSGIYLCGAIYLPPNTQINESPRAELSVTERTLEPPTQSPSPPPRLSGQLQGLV

B1: 4A7-mHvKv-dIgG4 (antibody, V domains shown)
VH: EVQLVESGGDLVKPGGSLKLSCVASGFPFSNFGMSWVRQTPDKRLEWVATISSGSSYSYYSDSVKGRFTISRDNAKNTLFLQMNSLKSEDTAIFYCARGESRFAYWGQGTLVTVSA
VL: DVVITQDELSNPVTSGESVSISCRSNKSLLYEDGQTYLNWFLQRPGQSPQLLIYLMSTRASGVSDRFSGSGSGTDFTLEISEVRAEDVGVYYCQQLIEYPLTFGAGTKLELKR
B2: 1D8-H1K1-dIgG4 (antibody, V domains shown)
VH: EVQLVESGGDLVKPVGSLRLSCVASGFTFNNFGMSWVRQAPGKGLQWVATLSSGSSYTYYSDSVKGRFTISRDNAKNTLYLQMNSLRAEDTAMYYCTRGESRFAYWGQGTLVTVSA
VL: GVVITQDPLSLAVTPGELVTISCRSSKSLLYKDGKTYLNWYLQKPGQTPRLLIYLMSTRASGVSDRFSGSGSGTDFTLKISRVEAEDVGVYYCQQLIEYPLTFGAGTKVELK
B3: 1D8-mHvKv-dIgG4 (antibody, V domains shown)
VH: B2 VH with V15G, R19K, V23A, A40N, G42D, G44R, Q46E, R87K, A88S
VL: B1 VL with D1G, N26S, E32K, Q35K, E82R, R84K
B4: 1D8-H1K2-dIgG4 (antibody, V domains shown)
VH: B2 VH
VL: B2 VL with Y41F
B5: 1D8-H2K1-dIgG4 (antibody, V domains shown)
VH: B2 VH with Q46E
VL: B2 VL
B6: 1D8-H2K2-dIgG4 (antibody, V domains shown)
VH: B2 VH with Q46E
VL: B2 VL with Y41F
B7: 1B9-H1K1-IgG4 (antibody, V domains shown)
VH: EVQLVQSGAEVKKPGASVKVSCKTSGYTFTSFWMNWVRLAPGAGLDWIGRVDPYDSETHYNQKFKDRVILTVDTSTSTAYMELSSLRAGDIAVYYCATQFGFSWLAYWGQGTLVTVSA
VL: EIVMTQSPGSLAGSAGESVSINCKSSQSLLYSSNQKNYLAWYQQKPGESPKLLIYWASTRESGVPDRFSGSGSGTDFTLTINNLQAEDVGVYYCQQYYSNPYTFGQGTKLEIK
B8: 1B9-H1K2-IgG4 (antibody, V domains shown)
VH: B7 VH
VL: B7 VL with E1D, G13V, L84V
B9: 1B9-H2K2-IgG4 (antibody, V domains shown)
VH: B7 VH with T24A, D46E, V68A
VL: B7 VL with E1D, G13V, L84V
B10: 1B9-H2K1-IgG4 (antibody, V domains shown)
VH: B7 VH with T24A, D46E, V68A
VL: B7 VL

This test addresses T1, Histidine-tagged canine PD-1 protein (canine). As to the kind of experiment: SPR (Biacore), dPD-1-His amine-coupled to CM5 chip, antibody injected, 1:1 Langmuir fit.
As to B1, the Kd was found to be 0.29 nM, the koff is 0.000152 s⁻¹ and the kon was 525000 M⁻¹ s⁻¹.

Regarding B2, the Kd turned out to be 4.57 nM, the koff came to 0.00309 s⁻¹ and the kon turned out to be 675000 M⁻¹ s⁻¹.

B3: the Kd came to 0.094 nM, the koff was 0.000135 s⁻¹ and the kon worked out at 1.44e+06 M⁻¹ s⁻¹.

B4 yielded a Kd of 4.5 nM, a koff of 0.00248 s⁻¹ and a kon of 550000 M⁻¹ s⁻¹.

As to B5, the Kd is 5.36 nM, the koff was 0.00348 s⁻¹ and the kon was 650000 M⁻¹ s⁻¹.

For B6, the Kd was determined as 4.34 nM, the koff came out at 0.00262 s⁻¹ and the on-rate constant (kon) came to 604000 M⁻¹ s⁻¹.

B7 came in with a Kd of 1.07 nM, a koff of 0.000454 s⁻¹ and a kon of 424000 M⁻¹ s⁻¹.

For B8, the Kd is 1.03 nM, the koff came to 0.00049 s⁻¹ and the kon worked out at 475000 M⁻¹ s⁻¹.

The molecule B9 gave a Kd of 0.745 nM, a koff of 0.00043 s⁻¹ and a kon of 577000 M⁻¹ s⁻¹.

For the molecule B10, the Kd was found to be 0.768 nM, the koff came out at 0.000454 s⁻¹ and the kon stood at 591000 M⁻¹ s⁻¹.
